Common to all, as to experiment: two-hybrid library CCmax;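 further: natural log of median RNA to DNA barcode read ratio; higher means stronger binding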
One experiment has as its target T1, Core_IIII-es_KEKE.
T1 chain: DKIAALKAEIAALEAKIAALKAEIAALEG
The following applies: mean of both orientations.

The next experiment addresses T2, Core_INNN-es_KEEK.
T2 chain: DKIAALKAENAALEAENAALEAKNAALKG
As to conditions: mean of both orientations.

The next experiment addresses T3, P4S.
T3 chain: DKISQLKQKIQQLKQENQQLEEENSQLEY
The following applies: mean of both orientations.

The target of the next experiment is T4, P4.
T4 chain: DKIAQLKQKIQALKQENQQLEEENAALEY
The following applies: mean of both orientations.

The target in a further experiment is T5, 4H3697-AA.
T5 chain: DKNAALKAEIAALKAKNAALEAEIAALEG
The following applies: mean of both orientations.

The target of a further experiment is T6, 4H3590-AA.
T6 chain: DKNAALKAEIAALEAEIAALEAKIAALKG

Another experiment addresses T7, 4H384-AA.
T7 chain: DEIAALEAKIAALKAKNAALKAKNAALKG
As to conditions: mean of both orientations.

Another experiment deals with T8, 4H3413-AA.
T8 chain: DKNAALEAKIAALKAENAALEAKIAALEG
The following applies: mean of both orientations.

The target in the next experiment is T9, 4H3056-AA.
T9 chain: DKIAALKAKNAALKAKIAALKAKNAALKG

The target in another experiment is T10, 4H697-AA.
T10 chain: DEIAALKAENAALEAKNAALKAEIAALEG
As to conditions: mean of both orientations.

In the next experiment the target is T11, 4H3378-AA.
T11 chain: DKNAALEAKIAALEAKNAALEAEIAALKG
The following applies: mean of both orientations.

Another experiment addresses T12, 4H3606-AA.
T12 chain: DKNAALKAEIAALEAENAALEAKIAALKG
The following applies: mean of both orientations.

In the next experiment the target is T13, Core_ININ-es_EEEE.
T13 chain: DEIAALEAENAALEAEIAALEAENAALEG
The following applies: mean of both orientations.

The target in the next experiment is T14, 4H982-AA.
T14 chain: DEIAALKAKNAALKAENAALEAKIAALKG
The following applies: mean of both orientations.

Another experiment addresses T15, 4H3631-AA.
T15 chain: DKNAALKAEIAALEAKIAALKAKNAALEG
As to conditions: mean of both orientations.

The next experiment concerns the target T16, 4H3162-AA.
T16 chain: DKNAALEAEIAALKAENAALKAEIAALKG
The following applies: mean of both orientations.

Another experiment concerns the target T17, 4H3133-AA.
T17 chain: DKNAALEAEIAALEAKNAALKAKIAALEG
As to conditions: mean of both orientations.

Another experiment addresses T18, 4H3865-AA.
T18 chain: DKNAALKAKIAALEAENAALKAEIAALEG
The following applies: mean of both orientations.

For the next experiment, the target named is T19, 4H3588-AA.
T19 chain: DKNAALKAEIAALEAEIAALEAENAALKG
As to conditions: mean of both orientations.

A further experiment addresses T20, 4H3718-AA.
T20 chain: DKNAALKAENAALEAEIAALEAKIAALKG
The following applies: mean of both orientations.

In a further experiment the target is T21, 4H32-AA.
T21 chain: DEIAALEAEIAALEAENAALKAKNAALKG
As to conditions: mean of both orientations.

A further experiment has as its target T22, 4H340-AA.
T22 chain: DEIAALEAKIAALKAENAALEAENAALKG
As to conditions: mean of both orientations.

Consider DEIAALEAKIAALKAEIAALEAKIAALKG [Core_IIII-es_EKEK], for which the interaction score in the experiment with Core_IIII-es_KEKE is 1.11.
Molecule DEIAALEAKNAALKAKNAALKAENAALEG [Core_INNN-es_EKKE] yielded an interaction score in the experiment with Core_INNN-es_KEEK of 1.91.
Consider DEIQQLEEEISQLEQKNSQLKEKNQQLKY [P3S], for which the interaction score came out at 0.00696 with P4S and 0.472 with P4.
DKIAALKAKNAALKAKIAALKAKNAALKG [4H3056-AA]: the interaction score with 4H3697-AA was -0.53; with 4H3590-AA it was -0.167; in the experiment with 4H384-AA it was -1.93; with 4H3413-AA it was -0.103; with 4H3056-AA it was -1.79; with 4H697-AA, -1.44. Besides, the interaction score with 4H3378-AA is -1.09; in the experiment with 4H3606-AA it was 0.58; in the experiment with Core_ININ-es_EEEE, 1.52; with 4H982-AA, -1.65; with 4H3631-AA it was -1.74; with 4H3162-AA, -1.58. Also, the interaction score with 4H3133-AA is -0.786; with 4H3865-AA, 0.0241; with 4H3588-AA, -0.439; with 4H3718-AA, -0.69; with 4H32-AA, -1.08; with 4H340-AA it was -1.52.

These data come from paper PMC10397247.
